In patent CN113372440A:

Legend:
[1] = target: gH/gL glycoprotein on EBV virions produced by AKATA cells (Epstein-Barr virus) (UniProt P03231); experiment: cell-based or functional assay
[2] = target: gLgH蛋白 (recombinant single-chain EBV M81 gL ectodomain - linker - gH ectodomain - 6xHis) (Epstein-Barr virus (M81 strain, KF373730.1)); experiment: ELISA, gLgH coated at 2 μg/mL, antibody titrated from 1 μg/mL (Fig. 2)

AMMO1 (针对EB病毒gLgH糖蛋白的人源中和单抗) (antibody)
IC50 in the epithelial cell infection model (HNE1 cells, GFP-EBV, inhibition of GFP-positive cells) [1]: 0.0828 µg/mL
EC50 [2]: 0.0255 µg/mL
